Source: the supplement of paper PMC10567573

B1: LOXL2 (parent)
chain: HISSCKLGPQVSLDPMKNVTCENG

Variants of: B1
Experiment: protein stability index of a GFP-peptide fusion (GPS, HEK-293T) (PSI 1-6); higher = more stable
Conditions: c terminus: a fixed tail appended
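Further: lentivirally expressed fusions sorted by FACS into six bins by GFP to DsRed ratio, PSI derived from sequencing read proportions per bin multiplied by bin number.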

Point of comparison: HISSCKFGPQVSLDPMKNVTCENG, protein stability index 4.1. Against it:
- HISSCKLGPQVSNDPMKNVTCENG — higher, 4.42
- HISSCKLGPQVSDDPMKNVTCENG — higher, 4.34
- HISSCKLGPQVSTDPMKNVTCENG — higher, 4.61
- HISSCKLGPQVSYDPMKNVTCENG — lower, 3.5
- HISSCKLGPQVSIDPMKNVTCENG — the same, 4.1
- HISSCKLGPQVSVDPMKNVTCENG — lower, 4.06
- HISSCKLGPQVSQDPMKNVTCENG — higher, 4.28
- HISSCKLGPQVSWDPMKNVTCENG — lower, 3.58
- HISSCKLGPQVSMDPMKNVTCENG — higher, 4.24
- HISSCKLGPQVSRDPMKNVTCENG — lower, 3.8
- HISSCKLGPQVSCDPMKNVTCENG — lower, 3.68
- HISSCKLGPQVSHDPMKNVTCENG — higher, 4.34
- HISSCKLGPQVSEDPMKNVTCENG — higher, 4.58
- HISSCKLGPQVSKDPMKNVTCENG — higher, 4.15
- HISSCKLGPQVSGDPMKNVTCENG — higher, 4.61
- HISSCKLGPQVSADPMKNVTCENG — higher, 4.43
- HISSCKLGPQVSPDPMKNVTCENG — higher, 4.22
- HISSCKLGPQVSFDPMKNVTCENG — lower, 3.52
- HISSCKLGPQVSSDPMKNVTCENG — higher, 4.45
- HISSCKLGPQFSLDPMKNVTCENG — lower, 3.56
- HISSCKLGPQTSLDPMKNVTCENG — lower, 4.07
- HISSCKLGPQDSLDPMKNVTCENG — higher, 4.35
- HISSCKLGPQWSLDPMKNVTCENG — lower, 3.44
- HISSCKLGPQYSLDPMKNVTCENG — lower, 3.67
- HISSCKLGPQHSLDPMKNVTCENG — higher, 4.41
- HISSCKLGPQSSLDPMKNVTCENG — lower, 4.09
- HISSCKLGPQCSLDPMKNVTCENG — higher, 4.27
- HISSCKLGPQMSLDPMKNVTCENG — higher, 4.15
- HISSCKLGPQESLDPMKNVTCENG — higher, 4.58
- HISSCKLGPQKSLDPMKNVTCENG — lower, 3.48
- HISSCKLGPQPSLDPMKNVTCENG — higher, 4.34
- HISSCKLGPQISLDPMKNVTCENG — lower, 3.72
- HISSCKLGPQLSLDPMKNVTCENG — lower, 3.72
- HISSCKLGPQNSLDPMKNVTCENG — higher, 4.33
- HISSCKLGPQQSLDPMKNVTCENG — higher, 4.4
- HISSCKLGPQRSLDPMKNVTCENG — lower, 3.94
- HISSCKLGPQASLDPMKNVTCENG — lower, 4.03
- HISSCKLGPQGSLDPMKNVTCENG — lower, 3.25
- HISWCKLGPQVSLDPMKNVTCENG — lower, 2.32
- HISVCKLGPQVSLDPMKNVTCENG — lower, 3.91
- HISQCKLGPQVSLDPMKNVTCENG — lower, 3.69
- HISYCKLGPQVSLDPMKNVTCENG — lower, 3.44
- HISRCKLGPQVSLDPMKNVTCENG — lower, 3.52
- HISTCKLGPQVSLDPMKNVTCENG — lower, 3.65
- HISSCKLPPQVSLDPMKNVTCENG — lower, 4.01
- HISSCKLQPQVSLDPMKNVTCENG — lower, 3.7
- HISSCKLEPQVSLDPMKNVTCENG — higher, 4.53
- HISSCKLYPQVSLDPMKNVTCENG — lower, 3.4
- HISSCKLHPQVSLDPMKNVTCENG — lower, 3.63
- HISSCKLRPQVSLDPMKNVTCENG — lower, 3.29
- HISSCKLCPQVSLDPMKNVTCENG — lower, 3.15
- HISSCKLTPQVSLDPMKNVTCENG — higher, 4.45
- HISSCKLVPQVSLDPMKNVTCENG — lower, 3.62
- HISSCKLSPQVSLDPMKNVTCENG — lower, 3.66
- HISSCKLLPQVSLDPMKNVTCENG — lower, 4.02
- HISSCKLNPQVSLDPMKNVTCENG — lower, 4.07
- HISSCKLKPQVSLDPMKNVTCENG — lower, 3.61
- HISSCKLIPQVSLDPMKNVTCENG — lower, 3.86
- HISSCKLAPQVSLDPMKNVTCENG — lower, 3.77
- HISSCKLWPQVSLDPMKNVTCENG — lower, 1.87
- HISSCKLFPQVSLDPMKNVTCENG — lower, 3.04
- HISSCKLDPQVSLDPMKNVTCENG — higher, 4.34
- HISSCKLMPQVSLDPMKNVTCENG — lower, 3.95
- HISSLKLGPQVSLDPMKNVTCENG — higher, 4.32
- HISSYKLGPQVSLDPMKNVTCENG — lower, 4
- HISSPKLGPQVSLDPMKNVTCENG — lower, 4.01
- HISSTKLGPQVSLDPMKNVTCENG — higher, 4.54
- HISSVKLGPQVSLDPMKNVTCENG — higher, 4.31
- HISSGKLGPQVSLDPMKNVTCENG — higher, 4.17
- HISSNKLGPQVSLDPMKNVTCENG — lower, 3.29
- HISSAKLGPQVSLDPMKNVTCENG — higher, 4.39
- HISSHKLGPQVSLDPMKNVTCENG — higher, 4.37
- HISSDKLGPQVSLDPMKNVTCENG — higher, 4.77
- HISSKKLGPQVSLDPMKNVTCENG — higher, 4.53
- HISSFKLGPQVSLDPMKNVTCENG — lower, 3.83
- HISSMKLGPQVSLDPMKNVTCENG — higher, 4.2
- HISSSKLGPQVSLDPMKNVTCENG — higher, 4.66
- HISSIKLGPQVSLDPMKNVTCENG — lower, 3.87
- HISSQKLGPQVSLDPMKNVTCENG — higher, 4.49
- HISSWKLGPQVSLDPMKNVTCENG — lower, 3
- HISSEKLGPQVSLDPMKNVTCENG — higher, 4.95
- HISSRKLGPQVSLDPMKNVTCENG — the same, 4.1
- HISSCKLGPDVSLDPMKNVTCENG — higher, 4.58
- HISSCKLGPSVSLDPMKNVTCENG — higher, 4.33
- HISSCKLGPPVSLDPMKNVTCENG — lower, 3.68
- HISSCKLGPHVSLDPMKNVTCENG — lower, 3.52
- HISSCKLGPWVSLDPMKNVTCENG — lower, 2.08
- HISSCKLGPVVSLDPMKNVTCENG — lower, 3.56
- HISSCKLGPIVSLDPMKNVTCENG — lower, 3.54
- HISSCKLGPYVSLDPMKNVTCENG — lower, 3.07
- HISSCKLGPKVSLDPMKNVTCENG — lower, 3.77
- HISSCKLGPNVSLDPMKNVTCENG — lower, 3.92
- HISSCKLGPRVSLDPMKNVTCENG — lower, 3.85
- HISSCKLGPCVSLDPMKNVTCENG — lower, 3.19
- HISSCKLGPTVSLDPMKNVTCENG — lower, 3.36
- HISSCKLGPMVSLDPMKNVTCENG — lower, 3.37
- HISSCKLGPGVSLDPMKNVTCENG — higher, 4.53
- HISSCKLGPAVSLDPMKNVTCENG — higher, 4.29
- HISSCKLGPFVSLDPMKNVTCENG — lower, 3.07
- HISSCKLGPLVSLDPMKNVTCENG — lower, 3.32
- HISSCKLGPEVSLDPMKNVTCENG — higher, 4.42
- HISSCKGGPQVSLDPMKNVTCENG — higher, 4.76
- HISSCKWGPQVSLDPMKNVTCENG — lower, 2.28
- HISSCKPGPQVSLDPMKNVTCENG — higher, 4.51
- HISSCKEGPQVSLDPMKNVTCENG — higher, 4.79
- HISSCKKGPQVSLDPMKNVTCENG — higher, 4.33
- HISSCKYGPQVSLDPMKNVTCENG — lower, 3.74
- HISSCKDGPQVSLDPMKNVTCENG — higher, 4.15
- HISSCKVGPQVSLDPMKNVTCENG — higher, 4.19
- HISSCKAGPQVSLDPMKNVTCENG — higher, 4.62
- HISSCKIGPQVSLDPMKNVTCENG — higher, 4.57
- HISSCKTGPQVSLDPMKNVTCENG — higher, 4.54
- HISSCKHGPQVSLDPMKNVTCENG — higher, 4.19
- HISSCKQGPQVSLDPMKNVTCENG — higher, 4.32
- HISSCKCGPQVSLDPMKNVTCENG — lower, 3.59
- HISSCKSGPQVSLDPMKNVTCENG — lower, 3.96
- HISSCKRGPQVSLDPMKNVTCENG — higher, 4.15
- HISSCKNGPQVSLDPMKNVTCENG — higher, 4.37
- HISSCKMGPQVSLDPMKNVTCENG — higher, 4.31
- HISSCNLGPQVSLDPMKNVTCENG — higher, 4.32
- HISSCWLGPQVSLDPMKNVTCENG — lower, 2.64
- HISSCCLGPQVSLDPMKNVTCENG — lower, 3.73
- HISSCRLGPQVSLDPMKNVTCENG — lower, 3.94
- HISSCELGPQVSLDPMKNVTCENG — higher, 4.35
- HISSCALGPQVSLDPMKNVTCENG — lower, 3.96
- HISSCYLGPQVSLDPMKNVTCENG — lower, 3.44
- HISSCTLGPQVSLDPMKNVTCENG — higher, 4.36
- HISSCGLGPQVSLDPMKNVTCENG — lower, 3.97
- HISSCHLGPQVSLDPMKNVTCENG — lower, 4
- HISSCFLGPQVSLDPMKNVTCENG — lower, 2.98
- HISSCPLGPQVSLDPMKNVTCENG — higher, 4.48
- HISSCMLGPQVSLDPMKNVTCENG — higher, 4.15
- HISSCQLGPQVSLDPMKNVTCENG — lower, 4.04
- HISSCLLGPQVSLDPMKNVTCENG — higher, 4.22
- HISSCVLGPQVSLDPMKNVTCENG — lower, 3.95
- HISSCILGPQVSLDPMKNVTCENG — lower, 3.57
- HISSCDLGPQVSLDPMKNVTCENG — higher, 4.9
- HISSCSLGPQVSLDPMKNVTCENG — higher, 4.34
- HISSCKLGPQVSLAPMKNVTCENG — lower, 3.51
- HISSCKLGPQVSLMPMKNVTCENG — lower, 3.22
- HISSCKLGPQVSLIPMKNVTCENG — lower, 3.44
- HISSCKLGPQVSLFPMKNVTCENG — lower, 2.46
- HISSCKLGPQVSLGPMKNVTCENG — lower, 3.45
- HISSCKLGPQVSLHPMKNVTCENG — lower, 3.61
- HISSCKLGPQVSLEPMKNVTCENG — higher, 4.12
- HISSCKLGPQVSLCPMKNVTCENG — lower, 2.95
- HISSCKLGPQVSLKPMKNVTCENG — lower, 3.5
- HISSCKLGPQVSLNPMKNVTCENG — lower, 3.33
- HISSCKLGPQVSLLPMKNVTCENG — lower, 3.22
- HISSCKLGPQVGLDPMKNVTCENG — lower, 3.93
- HISSCKLGPQVMLDPMKNVTCENG — lower, 3.57
- HISSCKLGPQVWLDPMKNVTCENG — lower, 2.47
- HISSCKLGPQVFLDPMKNVTCENG — lower, 3.27
- HISSCKLGPQVQLDPMKNVTCENG — higher, 4.44
- HISSCKLGPQVDLDPMKNVTCENG — lower, 3.72
- HISSCKLGPQVILDPMKNVTCENG — lower, 3.68
- HISSCKLGPQVKLDPMKNVTCENG — lower, 3.9
- HISSCKLGPQVALDPMKNVTCENG — higher, 4.3
- HISSCKLGPQVTLDPMKNVTCENG — higher, 4.34
- HISSCKLGPQVHLDPMKNVTCENG — lower, 4
- HISSCKLGPQVYLDPMKNVTCENG — lower, 3.24
- HISSCKLGPQVLLDPMKNVTCENG — lower, 3.31
- HISSCKLGPQVELDPMKNVTCENG — higher, 4.48
- HISSCKLGPQVPLDPMKNVTCENG — higher, 4.18
- HISSCKLGPQVCLDPMKNVTCENG — lower, 3.43
- HISSCKLGPQVVLDPMKNVTCENG — lower, 3.92
- HISSCKLGPQVNLDPMKNVTCENG — lower, 3.9
- HISSCKLGPQVRLDPMKNVTCENG — lower, 3.48
- HISSCKLGSQVSLDPMKNVTCENG — lower, 3.05
- HISSCKLGNQVSLDPMKNVTCENG — lower, 3.71
- HISSCKLGVQVSLDPMKNVTCENG — lower, 3.23
- HISSCKLGEQVSLDPMKNVTCENG — higher, 4.36
- HISSCKLGGQVSLDPMKNVTCENG — lower, 3.51
- HISSCKLGHQVSLDPMKNVTCENG — lower, 3.73
- HISSCKLGQQVSLDPMKNVTCENG — lower, 3.87
- HISSCKLGRQVSLDPMKNVTCENG — lower, 3.76
- HISSCKLGKQVSLDPMKNVTCENG — higher, 4.25
- HISSCKLGFQVSLDPMKNVTCENG — lower, 2.65
- HISSCKLGWQVSLDPMKNVTCENG — lower, 2.2
- HISSCKLGLQVSLDPMKNVTCENG — lower, 2.84
- HISSCKLGAQVSLDPMKNVTCENG — lower, 3.85
- HISSCKLGIQVSLDPMKNVTCENG — lower, 2.63
- HISSCKLGYQVSLDPMKNVTCENG — lower, 2.83
- HISSCKLGDQVSLDPMKNVTCENG — lower, 4.05
- HISSCKLGTQVSLDPMKNVTCENG — lower, 3.95
- HISSCKLGMQVSLDPMKNVTCENG — lower, 2.69
- HISSCKLGCQVSLDPMKNVTCENG — lower, 3.23
